This is an account of results in patent US20050244828A1.

The experiment has as its target CD22-Fc fusion protein (extra-cellular domain of human CD22 fused to human IgG Fc) (human) (UniProt P20273).

On to “BL22, a recombinant immunotoxin containing the FV domains of RFB4 fused to PE38, a truncated form of (from UniProt P11439 278-638)”, for which the percent inhibition of measured sCD22 level stood at 50%.
